This passage reports Kd results from paper PMC12554172, “Systematic analysis of the RGS2 degron reveals characteristics of substrate recognition by the F-box protein FBXO44” (The Journal of Biological Chemistry, 2025).

The target of the assay is RGS2^5–16 peptide (RGS2 degron, Met^5–Met^16). The assay is described as follows: SPR; Biacore X100; RGS2^5–16 peptide amine-coupled to a CM5 chip (2498 RU), blank reference cell; FBXO44^FBA as analyte, 0.29 to 75 μM, contact time 60 s, regeneration 50 mM NaOH; RU at equilibrium, nonlinear fit of saturation binding; SEC/SPR buffer 20 mM Tris–HCl pH 7.2, 200 mM NaCl. (SPR reads the build-up and loss of mass on a sensor chip optically.)

B1: FLAG-tagged FBXO44 FBA domain (FBXO44^FBA) (domain or fragment)
chain: FYFLRSLHRNLLHNPCAEEGFEFWSLDVNGGDEWKVEDLSRDQRKEFPNDQVKKYFVTSYYTCLKSQVVDLKAEGYWEELMDTTRPDIEVKDWFAARPDCGSKYQLCVQLLSSAHAPLGTFQPDPATIQQKSDAKWREVSHTFSNYPPGVRYIWFQHGGVDTHYWAGWYGPRVTNSSITIGP
As for B1, the Kd (usually the constant that tells how readily two partners part at equilibrium) came out at 2100 nM.
